Laboratory results reported in publication PMC10326071.

What was measured:
[1] = biological target: middle domain of human Paip1 (Paip1M, residues 78-296) (human) (UniProt Q9H074); assay: BLI; […]; association 30 s, dissociation 80 s; 25 C; global fit, 1:1 model
[2] = biological target: middle domain of human poly(A)-binding protein-interacting protein 1 (Paip1M, residues 78-296) (human) (UniProt Q9H074); assay: BLI; […]; 1×PBS pH 7.4, 0.1% surfactant P20, 0.1% BSA, 500 mM NaCl; 25 °C; global fit, 1:1 model
SARS-CoV-2 SUD-core [3] = biological target: T1, SARS-CoV-2 SUD-core (SARS-CoV-2, UniProt P0DTD1 1231-1494); assay: BLI; conditions: protein: recombinant; tags: N-terminal 6xHis; G4
SARS-CoV SUD-core = SARS-CoV SUD-core (SARS-CoV, UniProt P0C6X7 1207-1470); assay: BLI; conditions: protein: recombinant; tags: N-terminal 6xHis; G4
SARS-CoV-2 SUD-core [4] = biological target: T1, SARS-CoV-2 SUD-core; assay: BLI; Fig. 2C titration; conditions: protein: recombinant; tags: N-terminal 6xHis; G4
SARS-CoV-2 SUD-core [5] = biological target: T1, SARS-CoV-2 SUD-core; assay: EMSA; no compound; conditions: protein: recombinant; tags: N-terminal 6xHis; label: none stated; SYBR-Gold stain; G4 (predicted)

Sequence of middle domain of human Paip1 (Paip1M, residues 78-296) (human) (Q9H074 157-375): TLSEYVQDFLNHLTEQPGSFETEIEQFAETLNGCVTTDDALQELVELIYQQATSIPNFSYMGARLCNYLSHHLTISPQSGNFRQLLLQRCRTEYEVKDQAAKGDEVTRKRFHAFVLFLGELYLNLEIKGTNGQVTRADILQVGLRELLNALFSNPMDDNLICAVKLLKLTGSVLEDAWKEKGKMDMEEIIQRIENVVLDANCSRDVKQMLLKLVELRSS
Sequence of middle domain of human poly(A)-binding protein-interacting protein 1 (Paip1M, residues 78-296) (human) (Q9H074 157-375): as above

SARS-CoV-2 SUD-core (nsp3 residues 413-676) (domain or fragment)
koff [1]: 0.0055 s⁻¹

SARS-CoV SUD-core (nsp3 389-652) (domain or fragment)
koff [1]: 0.0066 s⁻¹
Kd [2]: 4400 nM

CGGGAGGGCGGGGAGGGC (structured_RNA) [G4-TRF2 (BLI)]
Kd (SARS-CoV-2 SUD-core [3]): 35.8 nM
Kd (SARS-CoV SUD-core): 17 nM
Kd (SARS-CoV-2 SUD-core [4]): 170 nM

GGCUUAUAGGUUUAAUGGUAUUGG (structured_RNA) [G4-24268 (EMSA)]
binding result (SARS-CoV-2 SUD-core [5]): binds
